Key:
[1] = target: H-GST-DEVD/S-mLIF, P09056
[2] = target: fusion protein of GST and mLIF with only the DEVD site in the linker (L0: DEVD), P09056
[3] = target: the 20 fusion proteins of the formula H-GST-DEVD/X-mLIF, where X is any of the possible 20 amino acids
[4] = target: fusion protein of GST and mLIF where the DEVD site is preceded by a GPGS sequence (L1: GPGSDEVD), P09056

| Protein | amount of enzyme sufficient to process 10 microgram of fusion protein [1] | time needed for processing [1] | processing yield (densitometric scanning of the gel) [2] | processing of the fusion protein (gel, FIG. 3b) (GST-C-hIFNα) | percent of fusion protein processed (2 microgram enzyme on 10 microgram substrate) (MBP-L0-hIFNalpha) | cleavage of P1′ variants (gel, FIG. 6) [3] | amount of enzyme sufficient to process 10 microgram of fusion protein (H-GST-DEVD/mLIF, P09056) | percent of fusion protein processed (50 ng enzyme, 45 minutes) (H-GST-DEVD/mLIF, P09056) | time needed for processing (H-GST-DEVD/mLIF, P09056) | percent of fusion product processed (densitometric scanning of the gel) [4] | efficiency of cleavage (H-GST-DEVD/mLIF, P09056) |
| --- | --- | --- | --- | --- | --- | --- | --- | --- | --- | --- | --- |
| murine Caspase-3 (protein) chain 1: SGIYLDSSYKMDYPEMGICIIINNKNFHKSTGMSSRSGTDVDAANLRETFMGLKYQVRNKNDLTREDILELMDSVSKEDHSKRSSFVCVILSHGDEGVIYGTNGPVELKKLTSFFRGDYCRSLTGKPKLFIIQACRGTELDCGIETD chain 2: SGTDEEMACQKIPVEADFLYAYSTAPGYYSWRNSKDGSWFIQSLCSMLKLYAHKLEFMHILTRVNRKVATEFESFSLDSTFHAKKQIPCIVSMLTKELYFYH | as little as 50 ng of enzyme is sufficient to process 10 microgram of protein | the reaction was finished after 45 minutes when using Caspase-3 | only 10% processing yield was seen under these conditions when using the L0 linker | Caspase-3 on the other hand gave a high yield of processing even after only 45 minutes of incubation | 2 microgram of caspase 3 is needed to process only 50% of 10 microgram of MBP-L0-hIFNalpha | all amino acids in the P1′ position could be processed by Caspase-3 | as little as 50 ng of enzyme is sufficient to process 10 microgram of protein | An amount of 50 ng is sufficient to process >90% of 10 microgram of a GST-mLIF fusion protein | the reaction was finished after 45 minutes when using Caspase-3 | 90% of the fusion product containing L1 was processed |  |
| murine caspase 7 (protein) chain 1: AKPDRSSIISSILLKKKRNASAGPVRTGRDRVPTYLYRMDFQKMGKCIIINNKNFDKATGMDVRNGTDKDAGALFKCFQNLGFEVTVHNDCSCAKMQDLLRKASEEDHSNSACFACVLLSHGEEDLIYGKDGVTPIKDLTAHFRGDRCKTLLEKPKLFFIQACRGTELDDGIQAD chain 2: ANPRNKIPVEADFLFAYSTVPGYYSWRNPGKGSWFVQALCSILNEHGKDLEIMQILTRVNDRVARHFESQSDDPRFNEKKQIPCMVSMLTKELYFSR |  |  |  |  |  |  |  |  |  |  | the murine caspase 7 was not as active as the murine caspase 3 and more enzyme needed to be added to obtain the same efficiency of cleavage |

Reference: patent US20060099689
